In experiment [1] the target is T1, recombinant Fcγ-receptor 3a protein, high affinity V158 allotype (UniProt P08637 17-208).
T1 construct: also called Fcγ-receptor 3a V158; FC gamma receptor 3a
Kind of experiment: surface plasmon resonance, KD from ka and kd.

The target in experiment [2] is T2, recombinant Fcγ-receptor 3a protein, low affinity F158 allotype (UniProt P08637 17-208).
T2 construct: F158 allotype; also called Fcγ-receptor 3a F158; FC gamma receptor 3a
Description: surface plasmon resonance, KD from ka and kd; A2, F158 allotype. A general note: In SPR one partner is held on a chip, and binding of the other changes the refractive index at the surface.

Experiment [3] concerns the target T1, recombinant Fcγ-receptor 3a protein, …. Description: surface plasmon resonance, KD compared with reference antibody.
Experiment [4] deals with T2, recombinant Fcγ-receptor 3a protein, …. Description: surface plasmon resonance, KD from ka and kd; B2, F158 allotype.

The record followed here is patent US20150266967A1 (Boehringer Ingelheim, published 2015).

T1 sequence (P08637 17-208 F176V): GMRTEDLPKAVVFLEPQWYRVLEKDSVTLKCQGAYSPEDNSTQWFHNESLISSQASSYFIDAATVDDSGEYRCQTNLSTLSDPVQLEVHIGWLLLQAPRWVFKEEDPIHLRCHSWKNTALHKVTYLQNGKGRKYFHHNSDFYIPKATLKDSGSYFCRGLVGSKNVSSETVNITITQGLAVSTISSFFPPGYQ
T2 sequence (P08637 17-208 limits assumed): as the sequence (P08637 17-208 F176V) above, with V160F counted along it

B1: CD37 antibody A2 (antibody, human IgG1, kappa)
heavy: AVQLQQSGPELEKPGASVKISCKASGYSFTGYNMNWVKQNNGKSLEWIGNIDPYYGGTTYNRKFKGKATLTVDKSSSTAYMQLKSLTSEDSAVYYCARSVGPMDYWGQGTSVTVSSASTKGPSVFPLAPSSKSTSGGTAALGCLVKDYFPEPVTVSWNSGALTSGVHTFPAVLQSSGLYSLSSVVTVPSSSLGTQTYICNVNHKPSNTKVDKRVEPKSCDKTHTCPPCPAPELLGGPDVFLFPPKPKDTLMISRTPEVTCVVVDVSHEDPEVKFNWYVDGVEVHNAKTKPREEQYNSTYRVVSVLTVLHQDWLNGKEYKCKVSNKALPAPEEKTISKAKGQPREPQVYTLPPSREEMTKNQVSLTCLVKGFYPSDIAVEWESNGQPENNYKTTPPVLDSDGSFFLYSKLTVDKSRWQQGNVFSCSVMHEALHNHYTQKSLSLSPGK
light: DIQMTQSPASLSASVGETVTITCRTSENVYSYLAWYQQKQGKSPQLLVSFAKTLAEGVPSRFSGSGSGTQFSLKISSLQPEDSGSYFCQHHSDNPWTFGGGTELEIKRTVAAPSVFIFPPSDEQLKSGTASVVCLLNNFYPREAKVQWKVDNALQSGNSQESVTEQDSKDSTYSLSSTLTLSKADYEKHKVYACEVTHQGLSSPVTKSFNRGEC
notes: Fc-engineered CD37 antibody; copies: 2 + 2
In the case of B1, the Kd came out at 8.8 nM in experiment [1] and 17.5 nM in experiment [2]. Also, the “fold increased binding against the non Fc-engineered IgG1 reference antibody” value in experiment [3] was approximately 40 fold.

B2: CD37 antibody B2 (antibody, human IgG1, kappa)
heavy: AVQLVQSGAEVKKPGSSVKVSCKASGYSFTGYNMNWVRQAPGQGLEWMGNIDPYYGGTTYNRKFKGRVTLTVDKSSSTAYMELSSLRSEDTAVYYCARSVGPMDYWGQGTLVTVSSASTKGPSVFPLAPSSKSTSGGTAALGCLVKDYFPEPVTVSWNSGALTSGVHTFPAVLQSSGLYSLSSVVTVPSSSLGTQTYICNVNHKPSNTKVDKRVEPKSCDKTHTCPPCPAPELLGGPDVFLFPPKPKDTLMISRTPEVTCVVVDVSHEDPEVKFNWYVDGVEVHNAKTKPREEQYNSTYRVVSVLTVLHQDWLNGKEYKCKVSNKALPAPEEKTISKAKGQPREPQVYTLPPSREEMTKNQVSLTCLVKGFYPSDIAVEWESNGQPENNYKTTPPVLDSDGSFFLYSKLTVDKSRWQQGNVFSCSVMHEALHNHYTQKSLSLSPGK
light: DIQMTQSPSSLSASVGDRVTITCRTSENVYSYLAWYQQKPGKAPKLLVSFAKTLAEGVPSRFSGSGSGTDFTLTISSLQPEDFATYFCQHHSDNPWTFGQGTKVEIKRTVAAPSVFIFPPSDEQLKSGTASVVCLLNNFYPREAKVQWKVDNALQSGNSQESVTEQDSKDSTYSLSSTLTLSKADYEKHKVYACEVTHQGLSSPVTKSFNRGEC
notes: as for B1
With B2, the Kd was 9.3 nM in experiment [1] and 21.1 nM in experiment [4]. Also, the “fold increased binding against the non Fc-engineered IgG1 reference antibody” value in experiment [3] is approximately 40 fold.

In general, Kd refers to a measure of binding affinity in units of concentration.
